According to the supplement of paper PMC10724198:
± gives the standard deviation of the averaged measurements.

What follows are sequences tested on Saccharomyces cerevisiae (assay: protein stability index of tFT-peptide fusion (C-terminal peptide) (PSI (0-1 scale)); higher = more stable (slower turnover)). Conditions: genetic background: wild type; temperature: 30 C.
Procedure: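 MPS profiling in S. cerevisiae of the yeast C-terminome library: the last 12 aa of each annotated ORF are fused to the C-terminus of a sfGFP-mCherry timer, after a GGGS linker. Cells are FACS-sorted into 8 mCherry/sfGFP bins and deep-sequenced. PSI runs from 0 (unstable) to 1 (stable); wild type and das1Δ backgrounds, two technical replicates each.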

Sequence | protein stability index
TVQSKLGDHGFN [PEP7 C-terminal 12 aa] | 0.707 ± 0.048
TYKRIKQDEKTD [ALG12 C-terminal 12 aa] | 0.707 ± 0.015
VACNPVAMADHQ [TUS1 C-terminal 12 aa] | 0.677 ± 0.019
VADAMLDQGDVF [GDH3 C-terminal 12 aa] | 0.6894 ± 0.0047
VDDYVAAGFQTL [SUT2 C-terminal 12 aa] | 0.714 ± 0.018
VDFLSKKLLKLR [YFL041W-A C-terminal 12 aa] | 0.708 ± 0.0078
VDIALYLTRSQT [YGR039W C-terminal 12 aa] | 0.694 ± 0.011
VEIFVDKLIDFL [THI80 C-terminal 12 aa] | 0.656 ± 0.027
VEMAVKFGKNAF [RIB4 C-terminal 12 aa] | 0.689 ± 0.059
VESKFTEKIKSM [RPC19 C-terminal 12 aa] | 0.559 ± 0.027
VETELEMVAEKA [YEH1 C-terminal 12 aa] | 0.665 ± 0.061
VFLYRKRIFIKL [GWT1 C-terminal 12 aa] | 0.485 ± 0.023
VFTPFLFGELIG [ERG1 C-terminal 12 aa] | 0.712 ± 0.035
VHDQTNLELYYL [HUB1 C-terminal 12 aa] | 0.6895 ± 0.0058
VHKDLDIKTVTL [PRO2 C-terminal 12 aa] | 0.671 ± 0.0073
VHKLGWSLSFDA [POR1 C-terminal 12 aa] | 0.6642 ± 0.0033
VILYRSVMKLSP [YOR073W-A C-terminal 12 aa] | 0.66 ± 0.017
VISYLLGADIHF [SMF3 C-terminal 12 aa] | 0.7135 ± 0.0039
VKDRPRGKDARL [RML2 C-terminal 12 aa] | 0.805 ± 0.029
VKKCWEKEKDGI [MKK2 C-terminal 12 aa] | 0.663 ± 0.026
VLDQITGDLKLY [PTH2 C-terminal 12 aa] | 0.6285 ± 0.0052
VLLIRSDKKKKV [YIL102C-A C-terminal 12 aa] | 0.696 ± 0.035
VLSNLAVKALQN [PRM3 C-terminal 12 aa] | 0.646 ± 0.023
VMQVQCLFFFIL [YJL156W-A C-terminal 12 aa] | 0.284 ± 0.0037
VNNAPARAKVSK [RCR2 C-terminal 12 aa] | 0.669 ± 0.0023
VPELTEKLGKYK [AIM45 C-terminal 12 aa] | 0.676 ± 0.026

Sequence | protein stability index
VRKNVTWNNLWE [CTF18 C-terminal 12 aa] | 0.682 ± 0.042
VRKVAQWLQQLT [FSH2 C-terminal 12 aa] | 0.5807 ± 0.0037
VSGFYDHDINGY [APJ1 C-terminal 12 aa] | 0.722 ± 0.0078
VSIKKLGRKLEN [FYV6 C-terminal 12 aa] | 0.6469 ± 0.0013
VSMKAIFSCMYV [YMR272W-B C-terminal 12 aa] | 0.655 ± 0.034
VTGFKDEVLETV [RPS1A C-terminal 12 aa] | 0.682 ± 0.032
VTGSVPAYCDDD [ART5 C-terminal 12 aa] | 0.694 ± 0.011
VTIFTWSSLLFV [TED1 C-terminal 12 aa] | 0.454 ± 0.0084
VTNPKGRLALEA [RPL32 C-terminal 12 aa] | 0.686 ± 0.026
VTQILYTPIESS [SIP2 C-terminal 12 aa] | 0.696 ± 0.03
VTVYGGRSRMSA [YJL152W C-terminal 12 aa] | 0.702 ± 0.02
VVGFYFQGALSE [VNX1 C-terminal 12 aa] | 0.708 ± 0.037
VVIIVPIVVHFS [SNC2 C-terminal 12 aa] | 0.425 ± 0.046
VVKRKKVKTKRI [JJJ1 C-terminal 12 aa] | 0.748 ± 0.14
VVNNRIFSGISK [RSM26 C-terminal 12 aa] | 0.698 ± 0.018
VWKRARVDLIAS [POL12 C-terminal 12 aa] | 0.51 ± 0.029
VWLAAALPLAFI [PRM7 C-terminal 12 aa] | 0.56 ± 0.018
VWSLYSRTALET [OAR1 C-terminal 12 aa] | 0.608 ± 0.012
VYSIESRVLGHN [OAC1 C-terminal 12 aa] | 0.676 ± 0.055
WAIESVDENWRF [TOP1 C-terminal 12 aa] | 0.773 ± 0.04
WARRSFSSYDLC [GID11 C-terminal 12 aa] | 0.694 ± 0.011
WDLEQIMSQHGF [PCL1 C-terminal 12 aa] | 0.735 ± 0.0046
WLTTKMSSSEAS [UIP4 C-terminal 12 aa] | 0.741 ± 0.025
WNCFLSMRNASK [YOR292C C-terminal 12 aa] | 0.72 ± 0.028
WRFLGIVKSPNT [YDR510C-A C-terminal 12 aa] | 0.693 ± 0.013
WRQEYPGVDEFF [PRM8 C-terminal 12 aa] | 0.748 ± 0.045

Sequence | protein stability index
YAGIPENKIIGV [ARG56 C-terminal 12 aa] | 0.702 ± 0.021
YCLAGVLCVFCV [YPR064W C-terminal 12 aa] | 0.433 ± 0.0085
YDKESDDRKCCL [CTR3 C-terminal 12 aa] | 0.675 ± 0.034
YGISSSVLKGST [PHO87 C-terminal 12 aa] | 0.676 ± 0.009
YGLNIGRPDFYR [TAF10 C-terminal 12 aa] | 0.7099 ± 0.0023
YHAVDSTMSPKN [OST4 C-terminal 12 aa] | 0.719 ± 0.047
YHKLVDEVFQHL [MPA43 C-terminal 12 aa] | 0.688 ± 0.016
YIDDIDQTIPKY [UBA4 C-terminal 12 aa] | 0.686 ± 0.0073
YILFFLFQLSIM [PEX35 C-terminal 12 aa] | 0.369 ± 0.015
YKDDEDDDIEMT [PDS5 C-terminal 12 aa] | 0.685 ± 0.051
YLGAKTGSLIDF [KAR5 C-terminal 12 aa] | 0.721 ± 0.026
YLIAVTNLVERE [PPT2 C-terminal 12 aa] | 0.723 ± 0.086
YLKLRGANFVLK [IES6 C-terminal 12 aa] | 0.684 ± 0.011
YLKRCCYHPMQN [YIL020C-A C-terminal 12 aa] | 0.679 ± 0.035
YLRRFFEVTSLV [EMP24 C-terminal 12 aa] | 0.338 ± 0.03
YLYVFLQQARLE [YBR032W C-terminal 12 aa] | 0.473 ± 0.018
YMIRFIANGYYY [SWR1 C-terminal 12 aa] | 0.614 ± 0.009
YMKHLLECRSLW [PCD1 C-terminal 12 aa] | 0.6945 ± 0.00077
YNINDLYKSLTR [MAK32 C-terminal 12 aa] | 0.711 ± 0.023
YPVGQVDRDVCC [TAD3 C-terminal 12 aa] | 0.685 ± 0.037
YQGVIYGIDGDQ [POP2 C-terminal 12 aa] | 0.689 ± 0.041
YSISISLHTPCV [YHR049C-A C-terminal 12 aa] | 0.632 ± 0.02
YTDLASIASGRD [SHS1 C-terminal 12 aa] | 0.714 ± 0.092
YTVLEDDANDEK [HAP1 C-terminal 12 aa] | 0.7 ± 0.027
YVFVFIIDFIIR [FUN26 C-terminal 12 aa] | 0.245 ± 0.0059
